{
  "source": "patent US6846910B2",
  "about": "“Isolated proteins containing portions of FAPα and other proteins” (Ludwig Institute for Cancer Research, priority 1994, dated 2005)",
  "molecules": {"B1": {"name": "FAPα: recombinant fibroblast activation protein alpha from 293-FAP cells, approximately 170 kilodalton dimeric species by SDS-PAGE of unboiled samples (protein)", "chain": "MKTWVKIVFGVATSAVLALLVMCIVLRPSRVHNSEENTMRALTLKDILNGTFSYKTFFPNWISGQEYLHQSADNNIVLYNIETGQSYTILSNRTMKSVNASNYGLSPDRQFVYLESDYSKLWRYSYTATYYIYDLSNGEFVRGNELPRPIQYLCWSPVGSKLAYVYQNNIYLKQRPGDPPFQITFNGRENKIFNGIPDWVYEEEMLPTKYALWWSPNGKFLAYAEFNDKDIPVIAYSYYGDEQYPRTINIPYPKAGAKNPVVRIFIIDTTYPAYVGPQEVPVPAMIASSDYYFSWLTWVTDERVCLQWLKRVQNVSVLSICDFREDWQTWDCPKTQEHIEESRTGWAGGFFVSRPVFSYDAISYYKIFSDKDGYKHIHYIKDTVENAIQITSGKWEAINIFRVTQDSLFYSSNEFEEYPGRRNIYRISIGSYPPSKKCVTCHLRKERCQYYTASFSDYAKYYALVCYGPGIPISTLHDGRTDQEIKILEENKELENALKNIQLPKEEIKKLEVDEITLWYKMILPPQFDRSKKYPLLIQVYGGPCSQSVRSVFAVNWISYLASKEGMVIALVDGRGTAFQGDKLLYAVYRKLGVYEVEDQITAVRKFIEMGFIDEKRIAIWGWSYGGYVSSLALASGTGLFKCGIAVAPVSSWEYYASVYTERFMGLPTKDDNLEHYKNSTVMARAEYFRNVDYLLIHGTADDNVHFQNSAQIAKALVNAQVDFQAMWYSDQNHGLSGLSTNHLYTHMTHFLKQCFSLSD"}},
  "key": {"[1]": {"target": "fibroblast activation protein alpha (human) (UniProt Q12884)", "test": "MHA rosetting assay on SW872 liposarcoma cells"}, "[2]": {"target": "fibroblast activation protein alpha (human) (UniProt Q12884)", "test": "MHA rosetting assay on COS-1 cells transfected with pFAP.38"}, "170 kD FAPα dimer": {"target": "T1, 170 kD FAPα dimer (Homo sapiens, UniProt Q12884, A207P/T229K/T354R)", "T1 construct": "expressed in transfected cells; host or cells: 293 cells stably transfected with pFAP.38 (293-FAP)", "T1 sequence (Q12884 1-760 A207P/T229K/T354R)": "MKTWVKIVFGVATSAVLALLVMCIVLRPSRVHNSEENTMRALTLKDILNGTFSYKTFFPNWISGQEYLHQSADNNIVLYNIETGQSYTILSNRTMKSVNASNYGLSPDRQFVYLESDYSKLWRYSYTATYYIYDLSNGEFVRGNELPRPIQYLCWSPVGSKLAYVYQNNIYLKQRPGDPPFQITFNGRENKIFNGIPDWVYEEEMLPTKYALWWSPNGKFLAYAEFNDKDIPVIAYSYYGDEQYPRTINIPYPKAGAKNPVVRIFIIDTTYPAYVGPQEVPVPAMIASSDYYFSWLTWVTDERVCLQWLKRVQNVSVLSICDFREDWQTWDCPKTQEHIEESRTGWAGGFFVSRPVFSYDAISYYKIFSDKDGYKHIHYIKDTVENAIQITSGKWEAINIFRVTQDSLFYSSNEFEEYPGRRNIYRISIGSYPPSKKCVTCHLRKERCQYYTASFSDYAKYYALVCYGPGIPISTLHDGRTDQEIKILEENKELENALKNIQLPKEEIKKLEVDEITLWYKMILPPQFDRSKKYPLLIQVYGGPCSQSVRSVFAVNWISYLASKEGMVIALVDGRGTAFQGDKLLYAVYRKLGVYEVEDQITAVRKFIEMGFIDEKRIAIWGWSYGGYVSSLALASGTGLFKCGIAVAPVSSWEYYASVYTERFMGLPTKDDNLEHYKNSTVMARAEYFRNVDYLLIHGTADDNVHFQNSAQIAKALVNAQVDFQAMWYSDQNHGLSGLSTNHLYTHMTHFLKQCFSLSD", "test": "Gelatin zymography with added treatments", "assay_type": "biochemical", "description": "Extracts of 293-FAP cells were prepared, using an extraction buffer (0.15M NaCl, 0.05M Tris-HCl, pH 7.4, 10 mM MgCl2, 1 percent Triton X-114), were cleared by centrifugation (4,000×g, 10 minutes at 40° C.), and phase partitioned at 37° C. for 10-20 minutes. This was followed by further centrifugation (4000×g, 20 minutes at 20-25° C.) Detergent phases were diluted with buffer (0.15M NaCl, 0.05M Tris-HCl pH 7.4, 5 mM CaCl2, 5 mM MgCl2, 0.75% Empigen BB), and separated on concanavalin A-Sepharose following Rettig et al., supra. Any concanavalin A bound fractions were eluted with 0.25M methyl-α-D-mannopyranoside in elution buffer 0.15M NaCl,0.05M Tris-HCl, pH 7.4, 5 mM CaCl2, 5 mM MgCl2, 0.1% Triton X-100), mixed with zymography sample buffer (0.25M Tris-HCl, pH 6.8, 8% SDS, 40% glycerol, 0.01% bromophenol blue), at a 3:1 ratio, and used for further analysis.\nAliquots of sample were loaded onto polyacrylamide gels containing 0.1% of either of gelatin or casein. Electrophoresis was then carried out in a Biorad Mini-Protein II system,.at 20 mA constant current for 1.5-2 hours, until the bromophenol blue dye fronts of samples had reached the lower end of the gel. The gel was removed and incubated for one hour at 20-25° C. in a 2.5% aqueous solution of Triton X-100 on a rotary shaker. The Triton X-100 solution was decanted, and replaced with enzyme buffer (0.05M Tris-HCl, pH 7.5, 0.2M NaCl, 5 mM CaCl2, 5 mM MgCl2, 0.02% Brij 35). The gel was then incubated at 37° C. or 41° C., followed by staining or destaining at room temperature. Gels were stained with 0.5% of Coomassie Brilliant Blue G-250 in an aqueous solution of 30% methanol and 10% acetic acid for 15, 30, and 60 minutes, respectively. Subsequently, gels were incubated for 15 minutes in an aqueous solution of 30% CH3OH and 5% glycerol, followed by drying between sheets of cellophane."}, "gelatin": {"system": "gelatin", "test": "Gelatin zymography of 293-FAP cell extracts", "assay_type": "biochemical", "conditions": "unboiled samples, approximately 170 kilodalton species", "method": "(§1) Extracts of 293-FAP cells were prepared, using an extraction buffer (0.15M NaCl, 0.05M Tris-HCl, pH 7.4, 10 mM MgCl2, 1 percent Triton X-114), were cleared by centrifugation (4,000×g, 10 minutes at […]), and phase partitioned at 37° C. for 10-20 minutes. This was followed by further centrifugation (4000×g, 20 minutes at 20-25° C.) Detergent phases were diluted with buffer (0.15M NaCl, 0.05M Tris-HCl pH 7.4, 5 mM CaCl2, 5 mM MgCl2, 0.75% Empigen BB), and separated on concanavalin A-Sepharose following Rettig et al., supra. Any concanavalin A bound fractions were eluted with 0.25M methyl-α-D-mannopyranoside in elution buffer 0.15M NaCl,0.05M Tris-HCl, pH 7.4, 5 mM CaCl2, 5 mM MgCl2, 0.1% Triton X-100), mixed with zymography sample buffer (0.25M Tris-HCl, pH 6.8, 8% SDS, 40% glycerol, 0.01% bromophenol blue), at a 3:1 ratio, and used for further analysis.\n(§2) Aliquots of sample were loaded onto polyacrylamide gels containing 0.1% of either of gelatin or casein. Electrophoresis was then carried out in a Biorad Mini-Protein II system,.at 20 mA constant current for 1.5-2 hours, until the bromophenol blue dye fronts of samples had reached the lower end of the gel. […]\nGelatinase activity was evaluated in accordance with Kleiner et al., Anal. Biochem. 218: 325-329 (1994), incorporated by reference in its entirety. […]"}, "casein": {"system": "casein", "test": "Casein zymography of 293-FAP cell extracts", "assay_type": "biochemical", "conditions": "gel with 0.1% casein", "method": "as §1\nas §2, with “gel. The gel was removed and incubated for one hour at 20-25° C. in a 2.5% aqueous solution of Triton X-100 on a rotary shaker.” for “gel.”"}, "[3]": {"test": "Membrane overlay assay for proteolytic activity", "assay_type": "biochemical", "conditions": "Ala-Pro-, Gly-Pro-, Lys-Pro-7-amino-4-trifluoromethyl coumarin", "method": "Proteolytic activity for defined amino acid sequence motifs were tested, using a well known membrane overlay assay. See Smith et al, Histochem. J. 24(9): 637-647 (1992), incorporated by reference. Substrates were Ala-Pro-7-amino-4-trifluoromethyl coumarin, Gly-Pro-7-amino-4-trifluoromethyl coumarin, and Lys-Pro-7-amino-4-trifluromethyl coumarin."}},
  "data": [
    {"molecule": "monoclonal antibody F19", "values": [
      {"measurement": "Cell surface antigen expression (% positive cells)", "setting": "[1]", "result": "> 95", "unit": "%"},
      {"measurement": "Cell surface antigen expression (% positive cells)", "setting": "[2]", "result": 40, "unit": "%"}
    ]},
    {"molecule": "O=C(O)CN(CCN(CC(=O)O)CC(=O)O)CC(=O)O", "note": "[ethylenediamine N,N,N′,N′-tetraacetic acid]", "values": [
      {"measurement": "effect on gelatin degrading enzymatic activity", "setting": "170 kD FAPα dimer; 10 mM added to incubation buffer for gelatin zymography", "result": "None of these treatments abolished the enzymatic activity"}
    ]},
    {"molecule": "NC(=O)CI", "note": "[iodoacetamide]", "values": [
      {"measurement": "effect on gelatin degrading enzymatic activity", "setting": "170 kD FAPα dimer; 5 um added to extracts prior to SDS-PAGE", "result": "None of these treatments abolished the enzymatic activity"}
    ]},
    {"molecule": "OCCS", "note": "[2-mercaptoethanol]", "values": [
      {"measurement": "effect on gelatin degrading enzymatic activity", "setting": "170 kD FAPα dimer; 5% added to extracts prior to SDS-PAGE", "result": "None of these treatments abolished the enzymatic activity"}
    ]},
    {"molecule": "B1", "values": [
      {"measurement": "gelatin degrading activity", "setting": "gelatin", "result": "observed to have gelatin degrading activity"},
      {"measurement": "proteolytic activity with casein as substrate", "setting": "casein", "result": "not observed"},
      {"measurement": "cleavage of dipeptide substrates", "setting": "[3]", "result": "able to cleave all of the Ala-Pro, Gly-Pro, and Lys-Pro dipeptides tested"}
    ]}
  ]
}
